From the DeepSol protein solubility set

Test: soluble on expression in E. coli; label from the status in PepcDB or PDB records

Sequence	soluble on expression in E. coli
DYKDDDDKVKLYKTNKYGTLYKSESASFTANTDIITRLTGPFRSMPQSGVLRKGLTIKYDEVMKQDGHVWVGYNTNSGKRVYLPVRTWNESTGELGPLWGTIK	soluble
MGSDKIHHHHHHMTVRQDIHSSGIPVLCLSCAARLRGVCAALDPNHLVGLAKTSSRHKLEPGVELIADAEAVDSYSNLLSGVVKLTKCLSDGRQQIVGLRFAPDFLGRPFKVKSTINVEAATSVSLCSFPKAAVERIMKESPGLEHRLLKQTLDELDEALEWMVTLGRKTAPEKVASFLLMIARNMDSSIDPAAGSACFDLPLTRADISDFLGLTNETVSRQLTRLRADGVIRIENKRHVTVDSMSRLEQRCGGRGARQPAFE	not soluble
MKMNVESFNLDHTKVKAPYVRIADRKKGVNGDLIVKYDVRFKQPNRDHMDMPSLHSLEHLVAEIIRNHANYVVDWSPMGCQTGFYLTVLNHDNYTEILEVLEKTMQDVLKAKEVPASNEKQCGWAANHTLEGAQNLARAFLDKRAEWSEVGVGSHHHHHH	soluble
MESSGKSSANPNLLAETLTTMQAQLQTQTEISQQVMEDNKNQSALLKQQREMSQALLEENKRLRAAQGDQPRFVAVGEKPLNSVKLMSDLLRQLPKYHFDVSEPDSFTKWWARHKLTFTEDGAELSNRERNRMLVARLEESTFQRFVDSQRDVEDIYSVPVEDTIKALSKSFGSQRSLMIRRQSCLLISRASGASMDPLEYTNLVGEAVLDAKLSNMSTDDWSIFIFLRGMDAPEDALAKRYLMQYYEQFERKDEKLKLSDVHDEWIRYIQTQQQSKVITVTPARHPKFEVNQVDADDKKKDSRKGNYRPPYCYKCKVVGHVSKDCPQSSTNSGVTNRKTEHSEVNTLEVGSGRQTSPSLRLNVEGQQIDFTFDTGSDITLISVQNWQKIGKPHLEKVHHKICCANGTEIAVKGRVLVWFKVKGVEYTEYVYVWNRNNNLLGTSWMRHSPQMRDALAVMVNHISTVDNSKQNSHSFSRIPTGYKDRAENVGRHVVASAPRSSKRQYVRFARNKAFQIGQLCLARVQGEHDFGWIYGVVQRQVNGVLYEVQLGSRIQRIHTNQLRHICGRRSRGNDYASSFIENPCKLSLLENIPRSSCRQKFVAQGVRGEGREANPVLVSDSSVFGFSAPDLSACESVGSRSAREVVSSVAGNARNASGANITTIHVTESKSSLKKSHRRRRRVAKSRQSYTAGSSPIKETHLDPLLESDVASDGERFQPGILLRHSLRQSHPRQVVRGSAPNTDHVSTRRRGRDTASGRDAPSPGIISGFLSYKRGDVVDGT	soluble
LINETSRRLNQRLTLTDTMNDLAVRMAESFQAEEVGFFHIDHFENLTLLPGSTAFFKEAKPSDFYNELKEKLYEGEKGVFIGNGQSVFGKAGYGSLMAAPMIQNDRLLGFAVLLKQELYAFTFEMYKLFQALIHHATLAVTNSMLRDRLE	soluble
MSLIITGVDVHVVNLPLTSPFRSSFETKTGETRTVVRVTTDDGHVGWGETMWGSPVARLTEQLSSSLIGKSPFALEEFHATHTMVPFFYGYIGYAALAGLDVACWDLMGKITGRPLTDLIGGRVRDTVPITALITRADAPDAPPADLPVALAEHAAKVVAIGGFTAVKLKGTKDVDGDVKIMRALRAVLPDVELRVDPNAAWSVPESIRAGLRMEELDLEYLEDPCWGIDGMARVREKIRIPLCTNMCVVAFEDFAPAMRLGAVDVIHGDVYKWGGEGHHHHHH	not soluble
MGEVLHIEDALNEKGVYVSTTSGVSMYPMLRNRRDTIIVKPPTAPLKKYDVPLYRRGDDYVLHRIIGKDDRGYIICGDNCINKEYGITENQIIGVLVGFYRDGNEVNMEGVGYKLYSRAWVFLHPLICAFKKIKMKAGKVKRLWHSK	not soluble
MNKLHKGWFTEFSPDDLEKMNGASDEEPTKVLKSDGQEMGGAWPGQAFSLQVKKVLFHEKSKYQDVLVFESTTYGNVLVLDGIVQATERDEFSYQEMLAHLPMFAHPDPKRVLIIGGGDGGILREVLKHESVEKVTMCEIDEMVIDVAKKFLPGMSCGFSHPKLDLFCGDGFEFLKNHKNEFDVIITDSSDPVGPAESLFGQSYYELLRDALKEDGILSSQGESVWLHLPLIAHLVAFNRKIFPAVTYAQSIVSTYPSGSMGYLICAKNANRDVTTPARTLTAEQIKALNLRFYNSEVHKAAFVLPQFVKNALE	soluble
MGSDKIHHHHHHMKPLRKIRLGIVGCGIAARELHLPALKNLSHLFEITAVTSRTRSHAEEFAKMVGNPAVFDSYEELLESGLVDAVDLTLPVELNLPFIEKALRKGVHVICEKPISTDVETGKKVVELSEKSEKTVYIAENFRHVPAFWKAKELVESGAIGDPVFMNWQIWVGMDENNKYVHTDWRKKPKHVGGFLSDGGVHHAAAMRLILGEIEWISAVAKDLSPLLGGMDFLSSIFEFENGTVGNYTISYSLKGNERFEITGTKGKISISWDKIVLNEEEMKVPQENSYQKEFEDFYQVVAEGKPNDLGSPVQALKDLAFIEACVRSAGNKVFVSSLL	soluble
MKQFLVALTILTSSLFSFASALDIIDESFLALKEFLDQPDSGAFLSLLERARGIFIVPKYLKLGWVLGGQYGQGVLLKRDPETNTWYGPLFVKMYGLSFGPQIGFQSVSLIAVIMENVDAFAEGNITLGGSLSVAAGPLGRRLSADYNLDASVYSYSIARGFYAGFSLEGAKIDVDLDLTREYYNVYRIEPEEILRREVSGRAEKIVNLLNEKLTEEAAALEHHHHHH	not soluble
MTVEQNEFLSSVQLQILAEQAIKQYPNEYQGSVKLLCQSENATFLVTTAQAKYALRIHRPNYHHLQDIESELAWLDALNQSGIEVPLAIADQDGQRVITLKLAEGISRYAVLFNWVNGSMPTTDVDPTAFQQLGQITAALHQHSKSWKRPEQFNRIVWNHDTMVGAQGHWGNWKHAPHLDQADHAVVEEAIARISTELCQYGAGEDRYGLIHADLRLTNLLLQDQQIGVIDFDDCGMSWFMHDLAAAISFNEHLDAAPQWVEHWLTGYEKTGHVQNHDYVMIPTFIMQRRIQMMAWNGSHAHTEMALSLGDQWSNETVRLCKKYLNGEMPVGRSNA	not soluble
MEDLEHGVASNGLRYGFYRVESESAAICIAARGGSSFEPPGKYGIAHLTEHMIFRGNEYLQDGELDRAVELSGGEANAYTTRELILLCAEFVSDSLARVAEKLFLAVSARRLVEGEFERERAVVEAEVKGLISSPESRIYRLAHASAWGDSHLGRPIEGYPETVANISKADVEEYKASVFSPERMSLAIVGRISRLEALRVVKLFSQLEPGGKVREPETPEPRTTFLREERGIEAAYAALTLPLPPRSGLANVLARLRGVVFNLEAGATSILFKEVREERGLAYGFNVDVHITSWGSSMSLIVLEGNRDRVGELFDAMTRSLERALRGGYPESEWREGRRRLYRFYTRREAISNMERADALSAVILFHEKPFTLEDLVNQTLSSEWSLEEFLRLPRGLALIV	not soluble
AIAPGRKRKLAAKTAELAPEAGEGSESTSLVGSADASASTAAGVAHTEQQEMPSGGLHESFLESIPPAASFLEELAWVESLASPSYVAYLCQMRRFDDVVAQRRLTTLQRWRQDPAYRQHVSQPIALFFLEQLCSAEFREALRHPAVAALYERQVDLYRRCYGNLLNTGESRVLR	soluble
MGSDKIHHHHHHVLNFDYDLQSVQETRNLARQAKQAQTELAQFNSEQIDKIIRNMVKVAEENAVALAKLAVEETGFGKVEDKVFKNRFASTELYQFIKPMQTIGVIKEDKINKVMEIAEPVGLLMGIVPSTNPTSTTIYKSLIAIKARNGIVFSPHPSALKCTLEAAKLMNDAAVAAGAPANIIGCISKPSMNATNELMKCDEVAMIIATGGSAMVKAAYSAGKPALGVGPGNVPAYIERTADIPKAVRNIIASKTFDNGTICASEQSVVVEECIRNQVMEEFKRQGGYFMTPEETEQVGRKLFNRGHAMNAKMVGRSAADIAAGAGISIPPGTKVLLGEQQGVGEQYPLSYEKLTTVLAFYTVKDWHEACDLCMKLLNNGGVGHSLSIHTENPEMAIKFAEKPVFRILVNTASTHGGVGVSTGLAPAFTLGCGTWGGSATSDNVTPMHLINIKRVAYGIKDVTENGNSSYATGDAQQGGSGGTVSEDRIQALVNEVMSLLKQRGDC	not soluble
MGSDKIHHHHHHMTISYEKFHLKEVINASGKMTILGVSKVSEAVLAAQRFGGEHFFEMSELSVQTGAFLANLLKVEDAQIVSSASAGIAQSVAALIGKGSLYHAYHPYTEKIEQREIVLPKGHNVDYGTPVEVMVAQGGGQVVEAGYANMCSPEHVEMMISEKTAAILYIKSHHTVQKSMLTVAEAAKVAQRHKVPLIVDAAAEEDLFKYTEAGADLVIYSGAKAIEGPSAGLVVGKKEYIDWVRLQGKGIGRAMKIGKDNILGFTQAVEEYLAHGSESGASMQERLKPFVEAINNLSDLTAKIVQDGAGRDIYRASVKVDGRKTAKEVIQALKAESPAIYTREYQANNGIIEFDIRSVNQEEMNKIVQRLQEIMDKKEK	not soluble
IGKEKAEVELLQVDPELQAEIIATHNIALQAAVQVEEKKAREAATEAVKEVVIGEYEARYAEHEEYDRIMRDVAEILEQMEHAEVRRLITEDKIRPDGRRVDEIRP	not soluble
MKTITLRPGQMTLADLRHIYQHPVHITLDESAYVPIQQSVDCVQAILAEQRTAYGINTGFGLLASTRIATEDLENLQRSIVLSHAAGVGEANDDAIVRLIMVLKINSLARGFSGIRLEVIQALITLVNAGVYPHIPLKGSVGASGDLAPLAHMSLLLLGEGKARYQGEWLPAHTALAQAGLQPLTLAAKEGLALLNGTQVSAAYALRGLFEAEDLYAAASVFGCLTVDAALGSRSPFDARIHAVRGQRGQIDAASTYRHLLGERSEISESHKNCDKVQDPYSLRCQPQVMGACLGQIRQAAEVLAIESNAVSDNPLVFAEQGDVLSGGNFHAEPVAMAADNLALALAEVGSLSECRISLMMDKHMSQLPPFLVENGGVNSGFMIAQVTAAALTSENKGLAFPASVDSIPTSANQEDHVSMAPRAGKRLWEMAENVRNILAIEWLAACQGLDLRKGLRTSAILEPARQLLRQHVTYYDKDRFFAPDIEVASQLIAQRHMNELMPAKLLPSL	not soluble
SDLGAITKYSALHAKPNGLILQYGTAGFRTKAEHLDHVMFRMGLLAVLRSKQTKSTIGVMVTASHNPEEDNGVKLVDPLGEMLAPSWEEHATCLANAEEQDMQRVLIDISEKEAVNLQQDAFVVIGRDTRPSSEKLSQSVIDGVTVLGGQFHDYGLLTTPQLHYMVYCRNTGGRYGKATIEGYYQKLSKAFVELTKQASCSGDEYRSLKVDCANGIGALKLREMEHYFSQGLSVQLFNDGSKGKLNHLCGADFVKSHQKPPQGMEIKSNERCCSFDGDADRIVYYYHDADGHFHLIDGDKIATLISSFLKELLVEIGESLNIGVVQTAYANGSSTRYLEEVMKVPVYCTKTGVKHLHHKAQEFDIGVYFEANGHGTALFSTAVEMKIKQSAEQLEDKKRKAAKMLENIIDLFNQAAGDAISDMLVIEAILALKGLTVQQWDALYTDLPNRQLKVQVADRRVISTTNAERQAVTPPGLQEAINDLVKKYKLSRAFVRPSGTEDVVRVYAEADSQESADHLAHEVSLAVFQLAGGIGERPQPGF	not soluble
MAHHHHHHMGCSGSKNASNPKDGAASKGGKDGKTTADRKVAWERIRCAIPRDKDAESKSRRIELFKRFDTNGTGKLGFREVLDGCYSVLKLDEFTTHLPDIVQRAFDKAKDLGNKVKGVGEEDLVEFLEFRLMLCYIYDIFELTVMFDTMDKDGSLLIELQEFKEALPKLKEWGVDITDATTVFNEIDTNGSGVVTFDEFSCWAVTKKLQVCGDPDGEGNGANEGDGANAGDGVPAAEGSA	soluble
MVQHLTAEEIIQYISDAKKSTPIKVYLNGNFEGITYPESFKVFGSEQSKVIFCEADDWKPFYEAYGSQFEDIEIEMDRRNSAIPLKDLTNTNARIEPGAFIREQAIIEDGAVVMMGATINIGAVVGEGTMIDMNATLGGRATTGKNVHVGAGAVLAGVIEPPSASPVIIEDDVLIGANAVILEGVRVGKGAIVAAGAIVTQDVPAGAVVAGTPAKVIKQASEVQDTKKEIVAALRKLND	not soluble
